Numbering of substitutions follows the chain as printed. Names and notes keep the numbering of the source.
B1: 578-min (antibody, V domains shown)
VH: EVQLVESGGGLVQPGGSLRLSCAASGFSLTDYYYMTWVRQAPGKGLEWVSFIDPDDDPYYATWAKGRFTISRDNSKNTLYLQMNSLRAEDTAVYYCAKGDHNSGWGLDIWGQGTLVTVSS
VL: EIVMTQSPSTLSASVGDRVIITCQASEIIHSWLAWYQQKPGKAPKLLIYLASTLASGVPSRFSGSGSGAEFTLTISSLQPDDFATYYCQNVYLASTNGANFGQGTKLTVLG
B2: 578-max (antibody, V domains shown)
VH: B1 VH with A23T, S50G, N74T, L79V, K98G
VL: B1 VL with A69T, E70Q
B3: 509-min (antibody, V domains shown)
VH: EVQLVESGGGLVQPGGSLRLSCAASGFSLSSYYMCWVRQAPGKGLEWVSCLDYVGDTDYASWAKGRFTISRDNSKNTLYLQMNSLRAEDTAVYYCAKTDDSRGWGLNIWGQGTLVTVSS
VL: EIVMTQSPSTLSASVGDRVIITCQASQNIRIWLSWYQQKPGKAPKLLIYKASTLESGVPSRFSGSGSGAEFTLTISSLQPDDFATYYCQNNAHYSTNGGTFGQGTKLTVLG
B4: 567-max (antibody, V domains shown)
VH: EVQLVESGGGLVQPGGSLRLSCSVSGFSLSDYYMCWVRQAPGKGLEWVGCLDYFGSTDDASWAKGRFTISKDTSKNTVYLQMNSLRAEDTAVYYCARTDDSRGWGLNIWGQGTLVTVSS
VL: B3 VL with S26D, N28S, R30Y, A69T, E70Q
B5: 567-min (antibody, V domains shown)
VH: B3 VH with S31D, V54F, D56S, Y59D
VL: B3 VL with S26D, N28S, R30Y
B6: 435-max (antibody, V domains shown)
VH: EVQLVESGGGLVQPGGSLRLSCKVSGFSLNTNYWMCWVRQAPGKGLEWVGCMYTGSYNRAYYASWAKGRFTSSKDTSKNTVYLQMNSLRAEDTAVYYCAKGSNWYSDLWGQGTLVTVSS
VL: EIVMTQSPSTLSASVGDRVIIKCQASQSIGSSLAWYQQKPGKAPKLLIYTAANLASGVPSRFSGSGSGAEFTLTISSLQPDDFATYYCQNFATSDTVTFGQGTKLTVLG
B7: 534-min C-His (antibody, V domains shown)
VH: EVQLVESGGGLVQPGGSLRLSCAASGFSLSYYYMSWVRQAPGKGLEWVSIIGPGDYTDYASWAKGRFTISRDNSKNTLYLQMNSLRAEDTAVYYCAKGDDNSGWGEDIWGQGTLVTVSS
VL: EIVMTQSPSTLSASVGDRVIITCQASQSINIWLSWYQQKPGKAPKLLIYKESTLASGVPSRFSGSGSGAEFTLTISSLQPDDFATYYCQNNYDSGNNGFPFGQGTKLTVLG
B8: 534-max (antibody, V domains shown)
VH: B7 VH with A23T, S49G, R71K, N73T, L78V, K97R
VL: B7 VL with A69T
B9: 375-max (antibody, V domains shown)
VH: EVQLVESGGGLVQPGGSLRLSCKASGFSFTTTDYMCWVRQAPGKGLEWVGCILAGDGSTYYANWAKGRFTGSKDTSKNTVYLQMNSLRAEDTAVYYCARSDPASSWSFALWGQGTLVTVSS
VL: EIVMTQSPSTLSASVGDRVIITCQASENINIWLSWYQQKPGKAPKLLIYQASKLASGVPSRFSGSGSGTQFTLTISSLQPDDFATYYCQNNYSYNRYGAPFGQGTKLTVLG
B10: 578-max FW1.4_DHP (960) (antibody, V domains shown)
VH: B1 VH with L11S, A23T, S50G, N74T, L79V, V93T, K98G, L115T
VL: B1 VL with A69T, E70Q
B11: 578-max-min (902) (antibody, V domains shown)
VH: B1 VH
VL: B1 VL with A69T, E70Q
B12: 578min_max V89A (978) (antibody, V domains shown)
VH: B1 VH with A23T, S50G, N74T, L79A, K98G
VL: B1 VL
B13: 578min_max T84N (991) (antibody, V domains shown)
VH: B1 VH with A23T, S50G, L79V, K98G
VL: B1 VL
B14: 578min_max V89L (980) (antibody, V domains shown)
VH: B1 VH with A23T, S50G, N74T, K98G
VL: B1 VL
B15: 578min_max T84N_V89A (1009) (antibody, V domains shown)
VH: B1 VH with A23T, S50G, L79A, K98G
VL: B1 VL
B16: 578 wildtype C-His (798) (antibody, V domains shown)
VH: QSVEESGGRLVTPGTPLTLTCTASGFSLTDYYYMTWVRLAPGKGLEYIGFIDPDDDPYYATWAKGRFTISRTSTTVNLKMTSPTTEDTATYFCAGGDHNSGWGLDIWGPGTLVTVSL
VL: DVVMTQTPSSVSAAVGDTVTINCQASEIIHSWLAWYQQKPGQPPKLLIYLASTLASGVPSRFKGSGSGTQFTLTISDLECADAAIYYCQNVYLASTNGANFGGGTEVVVK
B17: 511max_min (905) (antibody, V domains shown)
VH: EVQLVESGGGLVQPGGSLRLSCAASGFSLNTYYMNWVRQAPGKGLEWVSIIAPDDTTYYASWAKSRFTISRDNSKNTLYLQMNSLRAEDTAVYYCAKSGDTTAWGADIWGQGTLVTVSS
VL: EIVMTQSPSTLSASVGDRVIITCQASQSINIWLSWYQQKPGKAPKLLIYRASTLASGVPSRFSGSGSGTEFTLTISSLQPDDFATYYCQANYAYSAGYGAAFGQGTKLTVLG
B18: 511min_max (904) (antibody, V domains shown)
VH: B17 VH with A23T, A24V, S49G, F67S, N73T, L78V, K97R
VL: B17 VL with L33C, T69A

Molecular target: T1, mouse VEGF164 (mouse, UniProt Q00731)
T1 chain: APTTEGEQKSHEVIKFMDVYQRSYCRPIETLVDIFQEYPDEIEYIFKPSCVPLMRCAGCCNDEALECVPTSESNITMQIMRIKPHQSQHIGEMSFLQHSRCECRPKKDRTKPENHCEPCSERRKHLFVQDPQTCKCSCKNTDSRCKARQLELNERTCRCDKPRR
Assay: SPR, pH 5

**Q.** B1 was tested. Which Kd did it give?
**A.** Its Kd is 10.7 nM.

**Q.** B2 was tested. Which Kd did it give?
**A.** Its Kd is 0.429 nM.

**Q.** Which Kd does the source give for B3 here?
**A.** The Kd was 1.63 nM.

**Q.** With B4 as the binder, how does the Kd read?
**A.** Its Kd is 0.0929 nM.

**Q.** For B5, which Kd is on record?
**A.** The Kd was 0.17 nM.

Molecular target: T2, human VEGF121 (human, UniProt P15692)
T2 chain: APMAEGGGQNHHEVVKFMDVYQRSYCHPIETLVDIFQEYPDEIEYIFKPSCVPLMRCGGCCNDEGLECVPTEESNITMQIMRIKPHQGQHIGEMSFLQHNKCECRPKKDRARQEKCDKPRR
Assay: SPR, pH 5

**Q.** Which Kd does the source give for B1 here?
**A.** The Kd was 9.16 nM.

**Q.** B2 was tested. Which Kd did it give?
**A.** The Kd was 0.95 nM.

**Q.** For B3, which Kd is on record?
**A.** The Kd was 1.28 nM.

**Q.** How did the Kd turn out when B4 was run?
**A.** Its Kd is 0.0511 nM.

**Q.** For B5, which Kd is on record?
**A.** Its Kd is 0.0241 nM.

Molecular target: T3, rat VEGF164 (rat, UniProt P16612)
T3 chain: T1 chain with S10A, I14V, I75V
Assay: SPR, pH 5

**Q.** For B1, which Kd is on record?
**A.** The Kd was 10.7 nM.

**Q.** For B2, which Kd is on record?
**A.** Its Kd is 0.598 nM.

**Q.** For B3, which Kd is on record?
**A.** The Kd was 2.41 nM.

**Q.** How did the Kd turn out when B4 was run?
**A.** The Kd was 0.149 nM.

**Q.** B5 was tested. Which Kd did it give?
**A.** Its Kd is 0.279 nM.

Molecular target: T4, human VEGF110 (human, UniProt P15692)
T4 chain: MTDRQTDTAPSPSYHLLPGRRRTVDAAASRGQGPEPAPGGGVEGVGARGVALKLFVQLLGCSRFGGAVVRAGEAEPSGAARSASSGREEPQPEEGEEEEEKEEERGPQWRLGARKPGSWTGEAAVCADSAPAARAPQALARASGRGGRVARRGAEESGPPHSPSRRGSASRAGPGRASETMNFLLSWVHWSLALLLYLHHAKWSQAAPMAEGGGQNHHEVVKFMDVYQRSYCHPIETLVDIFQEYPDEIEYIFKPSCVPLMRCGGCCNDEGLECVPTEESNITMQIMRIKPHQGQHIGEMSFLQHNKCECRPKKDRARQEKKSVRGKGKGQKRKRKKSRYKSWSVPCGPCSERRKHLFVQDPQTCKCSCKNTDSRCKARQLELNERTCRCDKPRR
Assay: SPR, pH 5

**Q.** With B1 as the binder, how does the Kd read?
**A.** The Kd was 11.4 nM.

**Q.** Which Kd does the source give for B2 here?
**A.** The Kd was 1.38 nM.

**Q.** For B3, which Kd is on record?
**A.** Its Kd is 1.65 nM.

**Q.** How did the Kd turn out when B4 was run?
**A.** The Kd was 0.0327 nM.

**Q.** For B5, which Kd is on record?
**A.** The Kd was 0.0251 nM.

Molecular target: T5, human PlGF (human, UniProt P49763)
T5 chain: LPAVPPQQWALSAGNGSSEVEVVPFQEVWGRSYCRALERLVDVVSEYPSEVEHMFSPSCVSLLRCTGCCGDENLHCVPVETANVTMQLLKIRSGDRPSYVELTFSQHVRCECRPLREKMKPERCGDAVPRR
Assay: SPR, pH 5

**Q.** Does B1 bind?
**A.** Result: no binding

**Q.** Does B2 bind?
**A.** Result: no binding

**Q.** Does B3 bind?
**A.** Result: no binding

**Q.** Does B4 bind?
**A.** Result: no binding

**Q.** Does B5 bind?
**A.** Result: no binding

Molecular target: T6, human VEGF165 (human, UniProt P15692)
T6 chain: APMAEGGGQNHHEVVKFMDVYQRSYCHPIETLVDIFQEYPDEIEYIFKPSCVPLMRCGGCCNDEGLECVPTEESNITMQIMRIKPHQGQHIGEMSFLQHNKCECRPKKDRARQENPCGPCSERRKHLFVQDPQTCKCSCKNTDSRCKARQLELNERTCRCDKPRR
Assay: SPR, pH 5

**Q.** Which Kd does the source give for B1 here?
**A.** Its Kd is 9.01 nM.

**Q.** Which Kd does the source give for B2 here?
**A.** Its Kd is 0.439 nM.

**Q.** How did the Kd turn out when B6 was run?
**A.** The Kd was 4.53 nM.

**Q.** With B7 as the binder, how does the Kd read?
**A.** Its Kd is 34.1 nM.

**Q.** Which Kd does the source give for B8 here?
**A.** The Kd was 9.21 nM.

**Q.** With B9 as the binder, how does the Kd read?
**A.** The Kd was 2.68 nM.

**Q.** For B3, which Kd is on record?
**A.** The Kd was 1.82 nM.

**Q.** B4 was tested. Which Kd did it give?
**A.** The Kd was 0.188 nM.

**Q.** With B5 as the binder, how does the Kd read?
**A.** Its Kd is 0.23 nM.

Molecular target: T6, human VEGF165
Assay: SPR, pH 5
Remark: another data set of the same source

**Q.** B10 was tested. Which Kd did it give?
**A.** The Kd was 0.266 nM.

**Q.** B11 was tested. Which Kd did it give?
**A.** Its Kd is 6.55 nM.

**Q.** How did the Kd turn out when B12 was run?
**A.** Its Kd is 1.2 nM.

**Q.** With B13 as the binder, how does the Kd read?
**A.** The Kd was 0.971 nM.

**Q.** Which Kd does the source give for B14 here?
**A.** Its Kd is 2.13 nM.

**Q.** B15 was tested. Which Kd did it give?
**A.** Its Kd is 0.615 nM.

**Q.** How did the Kd turn out when B16 was run?
**A.** The Kd was 0.2 nM.

**Q.** How did the Kd turn out when B17 was run?
**A.** Its Kd is 1.48 nM.

**Q.** Which Kd does the source give for B18 here?
**A.** Its Kd is 0.278 nM.

Molecular target: T6, human VEGF165
Assay: SPR, pH 7.4

**Q.** Which Kd does the source give for B1 here?
**A.** Its Kd is 0.181 nM.

**Q.** For B2, which Kd is on record?
**A.** The Kd was 0.0237 nM.

**Q.** With B6 as the binder, how does the Kd read?
**A.** The Kd was 0.0922 nM.

**Q.** For B8, which Kd is on record?
**A.** The Kd was 2.47 nM.

**Q.** With B9 as the binder, how does the Kd read?
**A.** Its Kd is 4.74 nM.

**Q.** For B3, which Kd is on record?
**A.** The Kd was 3.06 nM.

**Q.** For B4, which Kd is on record?
**A.** The Kd was 0.143 nM.

**Q.** B5 was tested. Which Kd did it give?
**A.** The Kd was 0.631 nM.

Reference: patent US10590193 (dated 2020)
